Data from patent publication US20100041597A1 (published 2010).

T1: PKC-ζ (purified isoform) (Homo sapiens (Human), UniProt Q05513 1-592)
T1 construct: also called PKC-zeta; PKCzeta
T1 sequence: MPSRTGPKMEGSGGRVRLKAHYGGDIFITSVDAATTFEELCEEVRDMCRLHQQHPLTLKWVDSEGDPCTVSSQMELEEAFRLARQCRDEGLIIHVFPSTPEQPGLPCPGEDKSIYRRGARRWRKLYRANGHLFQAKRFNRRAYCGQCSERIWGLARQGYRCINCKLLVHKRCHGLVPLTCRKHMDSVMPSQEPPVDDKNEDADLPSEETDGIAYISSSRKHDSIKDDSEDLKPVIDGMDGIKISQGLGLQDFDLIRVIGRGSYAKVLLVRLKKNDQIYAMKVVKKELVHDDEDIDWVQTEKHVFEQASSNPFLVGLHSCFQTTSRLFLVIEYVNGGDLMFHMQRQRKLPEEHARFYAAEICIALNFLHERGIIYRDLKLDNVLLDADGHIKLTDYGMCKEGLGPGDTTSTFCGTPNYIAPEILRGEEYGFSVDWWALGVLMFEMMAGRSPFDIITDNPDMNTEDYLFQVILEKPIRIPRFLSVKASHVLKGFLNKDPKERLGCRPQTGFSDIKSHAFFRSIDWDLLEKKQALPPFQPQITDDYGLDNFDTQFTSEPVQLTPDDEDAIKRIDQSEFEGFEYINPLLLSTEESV

B1: PRE 13 (peptide)
peptide: Ac-RDAQNLI-NH2
notes: Synthetic peptide; also called peptide PRE 13; Ac-RDAQNLI-NH2
B2: PRE 4 (peptide)
peptide: Ac-KDAQNLIGISI-NH2
notes: Synthetic peptide; also called peptide PRE 4
B3: PRE 11 (peptide)
peptide: Ac-RDAQNLIGISI-NH2
notes: Synthetic peptide; also called peptide PRE 11
B4: PRE 6 (peptide)
peptide: Ac-KDANQLIGISI-NH2
notes: Synthetic peptide; also called peptide PRE 6
B5: PRE 3 (peptide)
peptide: Ac-AKGIQEVKGGDAQNLIGISI-NH2
notes: Synthetic peptide; also called peptide PRE 3
B6: PRE 7 (peptide)
peptide: Ac-ISIGILQNADK-NH2
notes: Synthetic peptide (retro form of PRE 4); also called peptide PRE 7
B7: PRE 12 (peptide)
peptide: Ac-KDAQNLI-NH2
notes: Synthetic peptide; also called peptide PRE 12; Ac-KDAQNLI-NH2

Target: T1, PKC-ζ (purified isoform)
Test: competitive ELISA on purified PKC-ζ vs anti-PKC-ζ Ab; PRE 200 µM
Description: (§1) Greiner 96 well ELISA plates were coated with the appropriate PKC isoform diluted in PBSN (PBS with Calcium/Magnesium+0.05% Sodium azide w/w). 50 μL/well at 250 ng/mL was used. Control wells contained PBSN only. Plates were incubated overnight at 4° C.
(§2) The plates were washed 3 times with 200 μL of dH₂O per well, then 100 μL of blocking solution was added per well and the plate incubated for 1 h at 37° C. The washing steps with dH₂O were repeated and 50 μL of the appropriate PRE solution (PRE stock solution [20 mM in DMSO] diluted in PBSN) was added and the plate incubated for 1 h at room temperature.
(§3) 50 μL of 1:1000 dilution of Alkaline Phosphatase (AP) conjugated antibody (anti-rabbit for all except zeta, which was anti-goat) was then added and the plate incubated for 1 h at room temperature. Washing with dH₂O was then repeated. Finally, 100 μL of pNPP solution in pNPP buffer (2 mM MgCl₂, 100 mM Sodium bicarbonate in water, pH 9.8) was added to all wells and incubated for 8 minutes for α, βI, βII ε, and ζ, or for 15-20 mins for […] (until sufficient coloration is observed). The reaction was stopped by addition of Stop solution (2N NaOH) and the absorbance at 405 nm was read on a Galaxy Plate reader.

| Binder | binding capacity (%) |
| --- | --- |
| B1 | 4.29% |
| B2 | 5.85% |
| B3 | 0% |
| B4 | 0% |
| B5 | 29.1% |
| B6 | 1.54% |

Target: T2, PKC-δ (purified isoform) (Homo sapiens (Human), UniProt Q05655 1-676)
T2 construct: also called PKC-delta; PKCdelta
T2 sequence (Q05655 whole entry, stated change not applied, canonical isoform): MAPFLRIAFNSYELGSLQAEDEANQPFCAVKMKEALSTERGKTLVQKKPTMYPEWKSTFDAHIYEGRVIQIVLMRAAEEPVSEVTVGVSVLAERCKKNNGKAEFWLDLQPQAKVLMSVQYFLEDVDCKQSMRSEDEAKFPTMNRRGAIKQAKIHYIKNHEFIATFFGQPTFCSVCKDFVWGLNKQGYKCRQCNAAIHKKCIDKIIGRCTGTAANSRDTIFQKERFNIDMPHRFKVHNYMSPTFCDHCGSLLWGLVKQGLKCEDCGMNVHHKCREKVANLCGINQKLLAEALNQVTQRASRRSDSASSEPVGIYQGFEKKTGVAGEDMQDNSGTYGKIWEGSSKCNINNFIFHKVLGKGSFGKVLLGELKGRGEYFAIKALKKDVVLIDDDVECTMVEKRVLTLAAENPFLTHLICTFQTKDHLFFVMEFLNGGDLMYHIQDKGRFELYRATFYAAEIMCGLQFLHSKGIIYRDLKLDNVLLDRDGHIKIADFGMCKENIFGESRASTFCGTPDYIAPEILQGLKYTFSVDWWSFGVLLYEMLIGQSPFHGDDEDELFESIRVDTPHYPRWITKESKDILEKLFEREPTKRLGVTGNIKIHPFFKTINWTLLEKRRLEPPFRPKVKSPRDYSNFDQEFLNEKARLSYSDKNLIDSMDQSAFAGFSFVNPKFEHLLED
Test: competitive ELISA on purified PKC-δ vs anti-PKC-δ Ab; PRE 200 µM
Description: as §1, §2, §3

| Binder | binding capacity (%) |
| --- | --- |
| B7 | 23.5% |
| B1 | 17.9% |
| B2 | 17.3% |
| B3 | 18.7% |
| B4 | 14% |
| B5 | 57% |
| B6 | 0% |

Target: T3, PKC-βI (purified isoform) (Homo sapiens (Human), UniProt P05771 2-671)
T3 construct: also called PKC-beta I
T3 sequence (P05771 2-671 limits assumed): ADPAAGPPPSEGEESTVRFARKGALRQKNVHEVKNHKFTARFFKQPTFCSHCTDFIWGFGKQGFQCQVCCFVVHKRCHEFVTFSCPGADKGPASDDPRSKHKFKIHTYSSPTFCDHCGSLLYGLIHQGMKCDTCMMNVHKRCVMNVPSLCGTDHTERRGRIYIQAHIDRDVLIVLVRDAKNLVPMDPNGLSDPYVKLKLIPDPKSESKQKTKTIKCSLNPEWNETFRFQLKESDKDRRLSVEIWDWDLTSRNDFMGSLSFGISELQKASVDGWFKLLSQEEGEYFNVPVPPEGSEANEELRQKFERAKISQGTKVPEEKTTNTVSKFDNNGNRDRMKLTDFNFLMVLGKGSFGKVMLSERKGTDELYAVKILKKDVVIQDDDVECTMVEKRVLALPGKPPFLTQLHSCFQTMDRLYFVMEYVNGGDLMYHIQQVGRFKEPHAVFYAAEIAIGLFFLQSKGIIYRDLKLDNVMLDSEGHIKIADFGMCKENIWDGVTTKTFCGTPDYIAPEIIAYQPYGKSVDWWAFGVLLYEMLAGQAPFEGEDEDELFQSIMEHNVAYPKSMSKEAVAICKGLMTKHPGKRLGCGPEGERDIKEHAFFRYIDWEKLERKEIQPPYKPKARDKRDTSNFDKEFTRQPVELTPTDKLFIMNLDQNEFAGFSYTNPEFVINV
Test: competitive ELISA on purified PKC-βI vs anti-PKC-βI Ab; PRE 200 µM
Description: as §1, §2, §3

| Binder | binding capacity (%) |
| --- | --- |
| B7 | 0% |
| B1 | 0% |
| B2 | 7.46% |
| B4 | 6.14% |
| B5 | 23% |
| B6 | 0% |

Target: T1, PKC-ζ (purified isoform)
Test: competitive ELISA on purified PKC-ζ vs anti-PKC-ζ Ab; PRE 50 µM
Description: as §1, §2, §3

| Binder | binding capacity (%) |
| --- | --- |
| B1 | 0% |
| B2 | 0% |
| B3 | 0% |
| B4 | 0% |
| B5 | 14% |
| B6 | 1.83% |

Target: T4, PKC-α (endogenous, human cell lysates and cells) (human, UniProt P17252 2-672)
T4 construct: Endogenous protein of human cell lysates, on Western blot membranes (denatured) or in fixed cells; also called PKC-alpha; PKC-A
Test: anti-PKC-α immunofluorescence, V5E-transfected IMR-32 cells loaded with PRE (label on PKC-α and V5E); control with endocytosis reagent 113
Source text: Neuroblastoma cells from the IMR-32 cell line were stably transfected with a vector containing the V5E sequence of PKC-α as outlined above in Example 13. The V5E sequence is part of the antigenic amino acid sequence that is used to raise the commercially available anti-PKC-α isoform-specific antibody.
The peptides PRE 1, 2, 3, 4, 5, 6, 7, 8, 9, 10, 11, 12 and 13 (see Table 3) were incorporated into the transfected IMR-32 cells via pinocytic endocytosis (Molecular Probes) according to the supplier's recommendations. Following fixation and permeabilization, PKC-α was detected using an Alexa fluor secondary antibody (as described above in Example 8).

| Binder | Relative Fluorescence Intensity |
| --- | --- |
| B7 | 124 |
| B2 | 79 |
| B3 | 131 |
| B4 | 73 |
| B5 | 83 |
| B6 | 75 |

Target: T1, PKC-ζ (purified isoform)
Test: competitive ELISA on purified PKC-ζ vs anti-PKC-ζ Ab; PRE 100 µM
Description: as §1, §2, §3

| Binder | binding capacity (%) |
| --- | --- |
| B1 | 0% |
| B2 | 0% |
| B3 | 0% |
| B4 | 0% |
| B5 | 23.9% |
| B6 | 0% |

Target: T2, PKC-δ (purified isoform)
Test: competitive ELISA on purified PKC-δ vs anti-PKC-δ Ab; PRE 100 µM
Description: as §1, §2, §3

| Binder | binding capacity (%) |
| --- | --- |
| B7 | 1.02% |
| B1 | 0.79% |
| B2 | 30.7% |
| B3 | 21.5% |
| B4 | 13.2% |
| B5 | 56% |
| B6 | 0% |

Target: T3, PKC-βI (purified isoform)
Test: competitive ELISA on purified PKC-βI vs anti-PKC-βI Ab; PRE 100 µM
Description: as §1, §2, §3

| Binder | binding capacity (%) |
| --- | --- |
| B7 | 0% |
| B1 | 0% |
| B2 | 15.7% |
| B4 | 7.93% |
| B5 | 22.5% |
| B6 | 0% |

Target: T2, PKC-δ (purified isoform)
Test: competitive ELISA on purified PKC-δ vs anti-PKC-δ Ab; PRE 50 µM
Description: as §1, §2, §3

| Binder | binding capacity (%) |
| --- | --- |
| B7 | 2.26% |
| B1 | 0% |
| B2 | 29.2% |
| B3 | 34.1% |
| B4 | 17.5% |
| B5 | 48.3% |
| B6 | 3.06% |

Target: T3, PKC-βI (purified isoform)
Test: competitive ELISA on purified PKC-βI vs anti-PKC-βI Ab; PRE 50 µM
Description: as §1, §2, §3

| Binder | binding capacity (%) |
| --- | --- |
| B7 | 0.79% |
| B1 | 0% |
| B2 | 6.02% |
| B4 | 0% |
| B5 | 26% |
| B6 | 2.1% |
